Laboratory results published in patent publication USRE50631 (VELOSBIO, dated 2025).

Experiments:
[1] = target: T1, human receptor tyrosine kinase like orphan receptor 1 (ROR1) (human, UniProt Q01973 30-937); experiment: binding to Jeko cells; column 'ADC-P Binding KD (nM)', method not described
T1 construct: whole, on cells; Target in all assays is endogenous ROR1 on human tumor cell lines; the cell line is named under assay; also called cell surface ROR1

[2] = target: T1, human receptor tyrosine kinase like …; experiment: binding to Jeko cells; column 'ADC-M Binding KD (nM)', method not described
[3] = target: T1, human receptor tyrosine kinase like …; experiment: binding to Jeko cells; column 'ADC-N Binding KD (nM)', method not described
[4] = target: T1, human receptor tyrosine kinase like …; experiment: cell-based or functional assay
[5] = target: T1, human receptor tyrosine kinase like …; experiment: binding to Jeko cells; column 'ADC-O Binding KD (nM)', method not described
[6] = target: T1, human receptor tyrosine kinase like …; experiment: binding to Jeko cells; column 'ADC-L Binding KD (nM)', method not described

T1 sequence (Q01973 30-937): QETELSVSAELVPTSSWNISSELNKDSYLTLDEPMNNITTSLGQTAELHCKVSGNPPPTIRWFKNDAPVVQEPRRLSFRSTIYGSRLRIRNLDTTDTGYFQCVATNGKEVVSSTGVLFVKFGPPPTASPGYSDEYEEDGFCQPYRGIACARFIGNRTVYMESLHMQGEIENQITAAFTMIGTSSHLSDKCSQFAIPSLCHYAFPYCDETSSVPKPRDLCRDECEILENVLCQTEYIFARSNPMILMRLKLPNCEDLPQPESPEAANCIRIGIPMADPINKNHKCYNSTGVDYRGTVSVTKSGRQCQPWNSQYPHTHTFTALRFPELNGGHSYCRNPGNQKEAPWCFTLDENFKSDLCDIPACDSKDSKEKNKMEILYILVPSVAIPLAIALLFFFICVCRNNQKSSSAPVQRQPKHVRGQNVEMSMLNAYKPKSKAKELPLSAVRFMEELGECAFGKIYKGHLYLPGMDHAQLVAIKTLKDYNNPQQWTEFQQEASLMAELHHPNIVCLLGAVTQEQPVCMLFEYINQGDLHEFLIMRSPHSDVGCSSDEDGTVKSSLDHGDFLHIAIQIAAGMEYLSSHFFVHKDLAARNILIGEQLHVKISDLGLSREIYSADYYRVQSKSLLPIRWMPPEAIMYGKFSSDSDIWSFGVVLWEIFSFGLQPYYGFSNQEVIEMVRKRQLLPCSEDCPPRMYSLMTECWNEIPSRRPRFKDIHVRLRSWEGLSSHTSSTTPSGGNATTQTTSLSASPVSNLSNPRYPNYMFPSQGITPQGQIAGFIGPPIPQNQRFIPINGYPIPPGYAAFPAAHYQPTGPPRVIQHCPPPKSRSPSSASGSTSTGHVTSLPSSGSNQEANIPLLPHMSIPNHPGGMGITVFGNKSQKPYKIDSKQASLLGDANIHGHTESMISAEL

B1: ADC-P (antibody, human IgG1, kappa, V domains shown)
VH: QVQLQESGPGLVKPSQTLSLTCTVSGYAFTAYNIHWVRQAPGQGLEWMGSFDPYDGGSSYNQKFKDRLTISKDTSKNQVVLTMTNMDPVDTATYYCARGWYYFDYWGHGTLVTVSS
VL: DIVMTQTPLSLPVTPGEPASISCRASKSISKYLAWYQQKPGQAPRLLIYSGSTLQSGIPPRFSGSGYGTDFTLTINNIESEDAAYYFCQQHDESPYTFGEGTKVEIKR
modifications: MAL-Phe-C4-VC-PAB-DMEA-PNU-159682 bonded via cysteine residues of the antibody (chain and positions not stated)
notes: Antibody-drug conjugate of Ab1; also called Ab1-MAL-Phe-C4-VC-PAB-DMEA-PNU-159682
Kd [1]: 0.00011 µM

B2: ADC-M (antibody, human IgG1, kappa, V domains shown)
VH: QVQLQESGPGLVKPSQTLSLTCTVSGYAFTAYNIHWVRQAPGQGLEWMGSFDPYDGGSSYNQKFKDRLTISKDTSKNQVVLTMTNMDPVDTATYYCARGWYYFDYWGHGTLVTVSS
VL: DIVMTQTPLSLPVTPGEPASISCRASKSISKYLAWYQQKPGQAPRLLIYSGSTLQSGIPPRFSGSGYGTDFTLTINNIESEDAAYYFCQQHDESPYTFGEGTKVEIKR
modifications: MAL-Phe-C4-VC-PAB-MMAE bonded via cysteine residues of the antibody (chain and positions not stated)
notes: Antibody-drug conjugate of Ab1; also called Ab1-MAL-Phe-C4-VC-PAB-MMAE
Kd [2]: 0.00012 µM

B3: ADC-N (antibody, human IgG1, kappa, V domains shown)
VH: QVQLQESGPGLVKPSQTLSLTCTVSGYAFTAYNIHWVRQAPGQGLEWMGSFDPYDGGSSYNQKFKDRLTISKDTSKNQVVLTMTNMDPVDTATYYCARGWYYFDYWGHGTLVTVSS
VL: DIVMTQTPLSLPVTPGEPASISCRASKSISKYLAWYQQKPGQAPRLLIYSGSTLQSGIPPRFSGSGYGTDFTLTINNIESEDAAYYFCQQHDESPYTFGEGTKVEIKR
modifications: MAL-PEG4-VC-PAB-DMEA-PNU-159682 bonded via cysteine residues of the antibody (chain and positions not stated)
notes: Antibody-drug conjugate of Ab1; also called Ab1-MAL-PEG4-VC-PAB-DMEA-PNU-159682
Kd [3]: 0.00013 µM

B4: ADC-F (antibody, human IgG1, kappa, V domains shown)
VH: QVQLQESGPGLVKPSQTLSLTCTVSGYAFTAYNIHWVRQAPGQGLEWMGSFDPYDGGSSYNQKFKDRLTISKDTSKNQVVLTMTNMDPVDTATYYCARGWYYFDYWGHGTLVTVSS
VL: DIVMTQTPLSLPVTPGEPASISCRASKSISKYLAWYQQKPGQAPRLLIYSGSTLQSGIPPRFSGSGYGTDFTLTINNIESEDAAYYFCQQHDESPYTFGEGTKVEIKR
modifications: SC-VC-PAB-DM1 bonded via lysine residues of the antibody (chain and positions not stated)
IC50, cell viability (CellTiter-Glo, 72 h), A2008 cells [4]: > 1 µM | IC50, cell viability (CellTiter-Glo, 72 h), Bt549 cells [4]: > 1 µM | IC50, cell viability (CellTiter-Glo, 72 h), DOHH2 cells [4]: > 1 µM | IC50, cell viability (CellTiter-Glo, 72 h), HBL-1 cells [4]: > 1 µM | IC50, cell viability (CellTiter-Glo, 72 h), HCC1187 cells [4]: > 1 µM | IC50, cell viability (CellTiter-Glo, 72 h), JHOM1 cells [4]: > 1 µM | IC50, cell viability (CellTiter-Glo, 72 h), MDA-MB-468 cells [4]: > 1 µM | IC50, cell viability (CellTiter-Glo, 72 h), SKOvr3 cells [4]: > 1 µM | IC50, cell viability (CellTiter-Glo, 72 h), TMD-8 cells [4]: > 1 µM | IC50, cell viability (CellTiter-Glo, 72 h), TOV112D cells [4]: > 1 µM

B5: ADC-O (antibody, human IgG1, kappa, V domains shown)
VH: QVQLQESGPGLVKPSQTLSLTCTVSGYAFTAYNIHWVRQAPGQGLEWMGSFDPYDGGSSYNQKFKDRLTISKDTSKNQVVLTMTNMDPVDTATYYCARGWYYFDYWGHGTLVTVSS
VL: DIVMTQTPLSLPVTPGEPASISCRASKSISKYLAWYQQKPGQAPRLLIYSGSTLQSGIPPRFSGSGYGTDFTLTINNIESEDAAYYFCQQHDESPYTFGEGTKVEIKR
modifications: MAL-C2-Gly3-EDA-PNU-159682 bonded via cysteine residues of the antibody (chain and positions not stated)
notes: Antibody-drug conjugate of Ab1; also called Ab1-MAL-C2-Gly3-EDA-PNU-159682
Kd [5]: 0.00012 µM

B6: ADC-L (antibody, human IgG1, kappa, V domains shown)
VH: QVQLQESGPGLVKPSQTLSLTCTVSGYAFTAYNIHWVRQAPGQGLEWMGSFDPYDGGSSYNQKFKDRLTISKDTSKNQVVLTMTNMDPVDTATYYCARGWYYFDYWGHGTLVTVSS
VL: DIVMTQTPLSLPVTPGEPASISCRASKSISKYLAWYQQKPGQAPRLLIYSGSTLQSGIPPRFSGSGYGTDFTLTINNIESEDAAYYFCQQHDESPYTFGEGTKVEIKR
modifications: MAL-DPR-VC-PAB-MMAE bonded via cysteine residues of the antibody (chain and positions not stated)
notes: Antibody-drug conjugate of Ab1; also called Ab1-MAL-DPR-VC-PAB-MMAE
Kd [6]: 0.00015 µM

B7: ADC-C (antibody, human IgG1, kappa, V domains shown)
VH: QVQLQESGPGLVKPSQTLSLTCTVSGYAFTAYNIHWVRQAPGQGLEWMGSFDPYDGGSSYNQKFKDRLTISKDTSKNQVVLTMTNMDPVDTATYYCARGWYYFDYWGHGTLVTVSS
VL: DIVMTQTPLSLPVTPGEPASISCRASKSISKYLAWYQQKPGQAPRLLIYSGSTLQSGIPPRFSGSGYGTDFTLTINNIESEDAAYYFCQQHDESPYTFGEGTKVEIKR
modifications: MAL-VC-PAB-DM1 bonded via cysteine residues of the antibody (chain and positions not stated)
IC50, cell viability (CellTiter-Glo, 72 h), A2008 cells [4]: > 1 µM | IC50, cell viability (CellTiter-Glo, 72 h), Bt549 cells [4]: > 1 µM | IC50, cell viability (CellTiter-Glo, 72 h), DOHH2 cells [4]: > 1 µM | IC50, cell viability (CellTiter-Glo, 72 h), HBL-1 cells [4]: > 1 µM | IC50, cell viability (CellTiter-Glo, 72 h), HCC1187 cells [4]: > 1 µM | IC50, cell viability (CellTiter-Glo, 72 h), JHOM1 cells [4]: > 1 µM | IC50, cell viability (CellTiter-Glo, 72 h), MDA-MB-468 cells [4]: > 1 µM | IC50, cell viability (CellTiter-Glo, 72 h), SKOvr3 cells [4]: > 1 µM | IC50, cell viability (CellTiter-Glo, 72 h), TMD-8 cells [4]: > 1 µM | IC50, cell viability (CellTiter-Glo, 72 h), TOV112D cells [4]: > 1 µM
